Data on 2 molecules can be found in patent US20230159603A1 (XILIO DEVELOPMENT, published 2023).

To fix the notation:
B1: rhIL-12RB2-Fc (Fc fusion, human, UniProt Q99665 24-622, looked up, not shown: a dimerising Fc or GST)
chain: KIDACKRGDVTVKPSHVILLGSTVNITCSLKPRQGCFHYSRRNKLILYKFDRRINFHHGHSLNSQVTGLPLGTTLFVCKLACINSDEIQICGAEIFVGVAPEQPQNLSCIQKGEQGTVACTWERGRDTHLYTEYTLQLSGPKNLTWQKQCKDIYCDYLDFGINLTPESPESNFTAKVTAVNSLGSSSSLPSTFTFLDIVRPLPPWDIRIKFQKASVSRCTLYWRDEGLVLLNRLRYRPSNSRLWNMVNVTKAKGRHDLLDLKPFTEYEFQISSKLHLYKGSWSDWSESLRAQTPEEEPTGMLDVWYMKRHIDYSRQQISLFWKNLSVSEARGKILHYQVTLQELTGGKAMTQNITGHTSWTTVIPRTGNWAVAVSAANSKGSSLPTRINIMNLCEAGLLAPRQVSANSEGMDNILVTWQPPRKDPSAVQEYVVEWRELHPGGDTQVPLNWLRSRPYNVSALISENIKSYICYEIRVYALSGDQGGCSSILGNSKHKAPLSGPHINAITEEKGSILISWNSIPVQEQMGCLLHYRIYWKERDSNSQPQLCEIPYRVSQNSHPINSLQPRVTYVLWMTALTAAGESSHGNEREFCLQGKAN

One experiment addresses T1, AK384.
T1 construct: Masked IL-12 heterodimer, IL-12Rβ1 (24-237) mask; tested uncleaved
Description: SPR, IL-12 receptor immobilised, IL-12 construct flowed, 25 C, FIGS. 35A-35D. On the procedure:
(§1) Sensor Chips were coated and immobilized with IL-12 receptors. Dilutions of IL-12 constructs were flowed over the chips with the immobilized IL-12 receptors to determine the on rate at 25 degrees C. At equilibrium (approximately 3-4 minutes), the flow buffer was changed to PBST, to determine the off rates over 6 minutes. Between each run the chip was regenerated. The tables represent the SPR data (FIGS. 34 and 35).

The next experiment addresses rhIL-12RB1-Fc (human, UniProt P42701 24-545, limits assumed). Description: SPR, IL-12 receptor immobilised, IL-12 flowed, 25 C, FIGS. 34A-34D. The procedure: as §1
The experiment “rhIL-12RB2-Fc” deals with B1. Kind of experiment: SPR, IL-12 receptor immobilised, IL-12 flowed, 25 C, FIGS. 35A-35D. The procedure:
as §1

B1: the binding result with AK384 is recorded as “binds”.

B2: recombinant human IL-12 (rhIL-12) control (ligand)
chain 1: IWELKKDVYVVELDWYPDAPGEMVVLTCDTPEEDGITWTLDQSSEVLGSGKTLTIQVKEFGDAGQYTCHKGGEVLSHSLLLLHKKEDGIWSTDILKDQKEPKNKTFLRCEAKNYSGRFTCWWLTTISTDLTFSVKSSRGSSDPQGVTCGAATLSAERVRGDNKEYEYSVECQEDSACPAAEESLPIEVMVDAVHKLKYENYTSSFFIRDIIKPDPPKNLQLKPLKNSRQVEVSWEYPDTWSTPHSYFSLTFCVQVQGKSKREKKDRVFTDKTSATVICRKNASISVRAQDRYYSSSWSEWASVPCS
chain 2: RNLPVATPDPGMFPCLHHSQNLLRAVSNMLQKARQTLEFYPCTSEEIDHEDITKDKTSTVEACLPLELTKNESCLNSRETSFITNGSCLASRKTSFMMALCLSSIYEDLKMYQVEFKTMNAKLLMDPKRQIFLDQNMLAVIDELMQALNFNSETVPQKSSLEEPDFYKTKIKLCILLHAFRIRAVTIDRVMSYLNAS
notes: also called wild-type rhIL-12
As to B2, the binding result in the experiment with rhIL-12RB1-Fc and in the experiment with rhIL-12RB2-Fc was “binds” each time.
